Results published in IntAct's records for PubMed 22035699.

B1: 5-hydroxytryptamine receptor 1A (Homo sapiens), P08908 (parent)
chain: MDVLSPGQGNNTTSPPAPFETGGNTTGISDVTVSYQVITSLLLGTLIFCAVLGNACVVAAIALERSLQNVANYLIGSLAVTDLMVSVLVLPMAALYQVLNKWTLGQVTCDLFIALDVLCCTSSILHLCAIALDRYWAITDPIDYVNKRTPRRAAALISLTWLIGFLISIPPMLGWRTPEDRSDPDACTISKDHGYTIYSTFGAFYIPLLLMLVLYGRIFRAARFRIRKTVKKVEKTGADTRHGASPAPQPKKSVNGESGSRNWRLGVESKAGGALCANGAVRQGDDGAALEVIEVHRVGNSKEHLPLPSEAGPTPCAPASFERKNERNAEAKRKMALARERKTVKTLGIIMGTFILCWLPFFIVALVLPFCESSCHMPTLLGAIINWLGYSNSLLNPVIYAYFNKDFQNAFKKIIKCKFCRQ

Variants of: B1
Details: with fgfr1_human FGFR1, P11362
fgfr1_human FGFR1, P11362, sequence (P11362 whole entry, looked up): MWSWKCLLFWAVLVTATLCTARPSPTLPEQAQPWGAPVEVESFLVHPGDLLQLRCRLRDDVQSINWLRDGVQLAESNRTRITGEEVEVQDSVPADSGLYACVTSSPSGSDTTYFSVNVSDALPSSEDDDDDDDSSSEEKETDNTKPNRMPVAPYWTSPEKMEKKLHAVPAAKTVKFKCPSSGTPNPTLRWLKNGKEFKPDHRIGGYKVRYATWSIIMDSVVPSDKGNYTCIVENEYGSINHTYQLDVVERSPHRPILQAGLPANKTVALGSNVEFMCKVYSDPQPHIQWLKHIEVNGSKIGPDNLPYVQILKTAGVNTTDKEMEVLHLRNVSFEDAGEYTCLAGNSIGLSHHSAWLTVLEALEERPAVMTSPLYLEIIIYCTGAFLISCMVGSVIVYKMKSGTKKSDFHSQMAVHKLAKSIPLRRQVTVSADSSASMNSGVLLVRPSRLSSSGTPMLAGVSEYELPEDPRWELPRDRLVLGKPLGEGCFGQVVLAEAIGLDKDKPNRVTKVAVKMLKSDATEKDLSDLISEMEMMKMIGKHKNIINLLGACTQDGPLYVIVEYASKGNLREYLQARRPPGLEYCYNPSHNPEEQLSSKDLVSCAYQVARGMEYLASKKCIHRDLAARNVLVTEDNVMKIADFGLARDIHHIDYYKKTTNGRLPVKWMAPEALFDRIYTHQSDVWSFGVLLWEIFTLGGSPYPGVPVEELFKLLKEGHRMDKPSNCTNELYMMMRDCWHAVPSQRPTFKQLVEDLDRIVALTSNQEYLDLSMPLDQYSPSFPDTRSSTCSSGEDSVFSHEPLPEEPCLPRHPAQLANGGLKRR

Variant | effect of a mutation on the interaction
MDVLSPGQGNNTTSPPAPFETGGNTTGISDVTVSYQVITSLLLGTLIFCAVLGNACVVAAIALERSLQNVANYLIGSLAVTDLMVSVLVLPMAALYQVLNKWTLGQVTCDLFIALDVLCCTSSILHLCAIALDRYWAITDPIDYVNKRTPRRAAALISLTWLIGFLISIPPMLGWRTPEDRSDPDACTISKDHGYTIYSTFGAFYIPLLLMLVLYGRIFRAARFRIRKTVKKVEKTGADTRHGASPAPQPKKSVNGESGSRNWRLGVESKAGGALCANGAVRQGDDGAALEVIEVHRVGNSKEHLPLPSEAGPTPCAPASFERKNERNAEAKRKMALARERKTVKTLGIIMGTFILCWLPFFIVALVLPFCESSCHMPTLLGAIINWLGYSNSLLNPVIYAYFNKAAAAAAAAAAACKFCRQ [D406A;F407A;Q408A;N409A;F411A;K412A;K413A;I414A;I415A;K416A] | decreasing interaction
